Assay results published in the supplement of paper PMC9732359.
± gives the uncertainty stated by the source.

Experiment: protein stability index of a GFP-peptide fusion (yeast GPS) (PSI 1-4); higher = more stable; sorted into four equal gates, so the index is relative within each strain
In short: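 Plasmids isolated from each sorting gate were PCR-amplified and Illumina-sequenced, and barcodes assigned the reads to strains. The gates, four of equal size, were set by GFP/Cherry fluorescence ratio on mid-log cultures in leucine-free medium. These cultures were yeast carrying a pooled library of tiled 17-residue yeast protein peptides fused downstream of GFP on a plasmid that also expresses Cherry. The protein stability index is the sum of every gate's read frequency times its gate number.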

Row | Sequence | protein stability index (doa10∆) | protein stability index (pdr5∆) | protein stability index (san1∆) | protein stability index (ubr1∆)
1 | KRDAKAAGSYYVEAQHK [RPL7A] | 3.21 ± 0.086 | 3.19 ± 0.046 | 3.22 ± 0.042 | 2.91 ± 0.054
2 | QNVISLGSLTVEDYLSS [RPC82] | 2.83 ± 0.095 | 2.84 ± 0.078 | 2.06 ± 0.12 | 3 ± 0.074
3 | HWPLNWYLILSIISSKT [RGR1] | 1.57 ± 0.1 | 1.5 ± 0.08 | 1.4 ± 0.21 | 1.18 ± 0.067
4 | LAKKIAPGKVELAINLI [SMC2] | – | 2.88 ± 0.15 | – | 2.65 ± 0.1
5 | YFSVTTARRNVSGDAAA [SWI3] | 1.9 ± 0.059 | 2.23 ± 0.063 | 2.33 ± 0.08 | 1.88 ± 0.047
6 | SCGEEEFFSTNWLSIFN [REC8] | 3.33 ± 0.098 | 3.29 ± 0.073 | 3.34 ± 0.1 | 2.96 ± 0.087
7 | ATRHVLMRQGVLGIKVK [RPS3] | 2.07 ± 0.096 | 2.27 ± 0.073 | 1.93 ± 0.095 | 2.07 ± 0.056
8 | SPVRSDSADVPAFSNSN [YMR153W/NUP53] | 3.06 ± 0.096 | 3.07 ± 0.096 | 3.21 ± 0.12 | 2.93 ± 0.057
9 | LKKFRESLVHSALCILK [BRR2] | 3.21 ± 0.12 | 2.1 ± 0.073 | 2.86 ± 0.078 | 2.97 ± 0.066
10 | GIGALFTQQELQKQMGI [RPC34] | 2.93 ± 0.11 | 3.39 ± 0.095 | 3.29 ± 0.085 | 2.69 ± 0.11
11 | NGLLNEISRLKTSLSIK [SMC2] | 3.1 ± 0.21 | 3.25 ± 0.11 | 3.12 ± 0.11 | 3.11 ± 0.15
12 | RVQLSGKIQENIPFWKH [SRP72] | 2.56 ± 0.071 | 2.44 ± 0.067 | 2.13 ± 0.07 | 2.4 ± 0.041
13 | SDPQMKVFDTLTRFSHD [RPN1] | – | 2.84 ± 0.15 | 2.78 ± 0.18 | 2.94 ± 0.21
14 | NRAMEYDALLSINVHSN [RET1] | 2.58 ± 0.061 | 2.41 ± 0.064 | 2.29 ± 0.07 | 2.68 ± 0.045
15 | CVEISHISKIIGLDTQQ [RPN6] | 2.38 ± 0.17 | – | – | –
16 | LFSLLELGEQKCQELVT [RRP46] | 1.97 ± 0.061 | 1.8 ± 0.056 | 1.87 ± 0.093 | 2.1 ± 0.058
17 | PYLLPYILEAEAAAKEK [QCR7] | 1.39 ± 0.07 | 1.26 ± 0.062 | 1.5 ± 0.11 | 1.19 ± 0.053
18 | NDSKEESTTEATGNESQ [YLR335W/NUP2] | – | 3.14 ± 0.18 | 2.97 ± 0.22 | 3.35 ± 0.1
19 | DQQSPWLLRLELDRAAM [RPO21] | 1.49 ± 0.22 | 1.83 ± 0.14 | 1.93 ± 0.13 | 2.66 ± 0.1
20 | IEDRDFLVRYACEPTAE [SIR3] | 2.28 ± 0.064 | 2.83 ± 0.067 | 2.53 ± 0.074 | 3.08 ± 0.069
21 | ILGIAGEDFAVLAGDTR [PRE7] | 3.65 ± 0.22 | 3.2 ± 0.23 | 3.32 ± 0.23 | 3.64 ± 0.076
22 | ISGNPPLLYNSLCTVWK [SRB5] | 2.56 ± 0.051 | 2.41 ± 0.045 | 2.34 ± 0.048 | 2.38 ± 0.055

Row | Sequence | protein stability index (doa10∆) | protein stability index (pdr5∆) | protein stability index (san1∆) | protein stability index (ubr1∆)
23 | KLSCIQLNCIDTQFTKL [SRB8] | 2.09 ± 0.046 | 1.92 ± 0.062 | 2.31 ± 0.091 | 2.61 ± 0.045
24 | LSLQRANVEILAVEDKP [CSL4] | 1.35 ± 0.054 | 1.44 ± 0.061 | 1.67 ± 0.092 | 1.61 ± 0.044
25 | GKAKGDIPGVRFKVVKV [RPS23A] | 3.32 ± 0.19 | 3.42 ± 0.18 | – | –
26 | PEKTSTELVDGRENFVY [SIR3] | 3.08 ± 0.099 | 3.25 ± 0.15 | 3.1 ± 0.12 | 3 ± 0.088
27 | KQLQLAMHNSKAASSTR [POP1] | 1.96 ± 0.057 | 2.17 ± 0.071 | 1.54 ± 0.11 | 1.74 ± 0.037
28 | AMFFGNYGSSLQWHAMI [AAR2] | 2.41 ± 0.093 | 1.8 ± 0.085 | 1.44 ± 0.12 | 2.15 ± 0.071
29 | FGHLKLALPVFHIGYFK [RPO31] | 1.17 ± 0.073 | 1.22 ± 0.062 | 1.24 ± 0.13 | 1.13 ± 0.043
30 | VLGFLQLFHNLISIHSR [YJL039C/NUP192] | 2.67 ± 0.068 | 2.89 ± 0.059 | 2.85 ± 0.056 | 2.98 ± 0.048
31 | KPSSPPDVKSLVQLSTM [SIR4] | 3.41 ± 0.11 | 3.26 ± 0.07 | 3.12 ± 0.088 | 3.26 ± 0.06
32 | AAAQAQSKIDLTKKKNE [SEM1] | 2.9 ± 0.079 | 2.83 ± 0.096 | 2.94 ± 0.082 | 2.87 ± 0.083
33 | NSQERVQDLGSAISVTN [SIR2] | 2.45 ± 0.16 | 3.11 ± 0.11 | 3.01 ± 0.092 | 3.25 ± 0.19
34 | NISRDFQSYIVSSLPGS [COR1] | 1.63 ± 0.093 | 2.14 ± 0.095 | 2.08 ± 0.098 | 1.85 ± 0.048
35 | RYFFWLQEKNSGNLPLN [RPN13] | 3.04 ± 0.16 | 3 ± 0.085 | 2.81 ± 0.063 | 2.87 ± 0.11
36 | DDRGPVLESIVARTFWA [BRR2] | 2.67 ± 0.09 | 2.07 ± 0.057 | 2.9 ± 0.11 | 2.85 ± 0.077
37 | ANLEDIIFEIEKPLVVP [RRP6] | 2 ± 0.085 | 2.79 ± 0.094 | 2.62 ± 0.08 | 2.03 ± 0.11
38 | QILENYNALFQQNIKFR [YJL039C/NUP192] | 2.73 ± 0.075 | 2.79 ± 0.065 | 2.86 ± 0.036 | 3.04 ± 0.054
39 | ERVRNFAVIYLCDIDEV [DIB1] | 1.26 ± 0.13 | 1.22 ± 0.093 | 1.04 ± 0.26 | 1.36 ± 0.088
40 | IDSVEVETNTTVLADEF [RPB3] | 2.96 ± 0.076 | 3.17 ± 0.071 | 3.09 ± 0.051 | 3.16 ± 0.037
41 | VNNPQEETSHLLTVTPG [RPN10] | 2.62 ± 0.13 | 2.84 ± 0.08 | 2.99 ± 0.14 | 2.86 ± 0.066
42 | GEALPNKFHKSIREDIL [SIR2] | 3.16 ± 0.14 | 3.04 ± 0.11 | 2.7 ± 0.096 | 2.76 ± 0.07
43 | GIACAGKGLQSAIDVLD [RPN2] | 2.15 ± 0.068 | 2.52 ± 0.077 | 2.48 ± 0.1 | 2.75 ± 0.071
44 | DHFIHLRNLHMKRMVAQ [SNF12] | 2.78 ± 0.063 | 2.52 ± 0.083 | 2.77 ± 0.062 | 2.45 ± 0.047
